Data taken from US20120028900A1.

Legend:
[1] = target: von Willebrand factor (vWF) (human) (UniProt P04275); experiment: in vitro binding to vWF; method not given
[2] = target: von Willebrand factor (vWF) (human) (UniProt P04275); experiment: FVIII-vWF binding ELISA; anti-A2 domain trap, vWF from FVIII-deficient plasma, peroxidase anti-vWF detection
[3] = target: A1/A3-C1-C2 heterodimer of thrombin-cleaved FVIII (human) (UniProt P00451); experiment: optical biosensor, after thrombin cleavage of purified protein
[4] = target: IR8 (90/b/73 R336I/R562K/R740A; del795-1688/Arg336Iso/Arg562Lys/Arg740Ala) (human) (UniProt P00451); experiment: biosensor; IR8 (30 nM) captured on immobilised Mab NMC-VIII/5, vWF added at 10 nM
[5] = target: FVIII mutant L/L 2251/2252 L/S (L2252S) (UniProt P00451)
[6] = target: FVIII mutant M/F/L 2199/2200/2252 W/W/S (UniProt P00451)
[7] = target: FVIII mutant M/F 2199/2200 W/W (UniProt P00451)
[8] = target: von Willebrand factor (vWF) (human) (UniProt P04275); experiment: ELISA and affinity biosensor analysis
[9] = target: von Willebrand factor (vWF) (human) (UniProt P04275); experiment: summary of ELISA and biosensor results
wild-type FVIII (human) = wild-type FVIII (human) (UniProt P00451); experiment: cell-based or functional assay
[10] = target: IR8 (90/b/73 R336I/R562K/R740A; del795-1688/Arg336Iso/Arg562Lys/Arg740Ala) (human) (UniProt P00451); experiment: cell-based or functional assay

Work on “IR8/ESH8 complex (from UniProt P00451 20-812; P00451 1708-2351)” yielded a Kd [1] of 1.3 nM and a fold lower binding affinity compared to wild-type FVIII [2] of 2 fold.
In the case of “A2 subunit of thrombin-cleaved R698L B-domainless FVIII (from UniProt P00451 392-759)”, the fold increased rate of A2 subunit dissociation compared to a B domainless FVIII control [3] is reported as 2 fold.
“von Willebrand factor (vWF) (from UniProt P04275 764-2813)” gave a Kd [4] of 29.6 nM, a koff [4] of 0.0042 s⁻¹ and a kon [4] of 140000 M⁻¹ s⁻¹.
In the case of factor IXa, the “apparent affinity for factor IXa, Xase assay with 15% PS” value (“apparent affinity … with 15% PS” for short) [5] is reported as “reduced 5-fold”, the “apparent affinity of factor IXa, Xase assay with saturating PL, 1000 uM” value (from here on “apparent affinity of factor IXa”) [5] is reported as “decreased approximately 4-fold” and the “apparent affinity … with 15% PS” value [6] is reported as “reduced 5-fold”. For the same substance, the “apparent affinity of factor IXa” value [6] was “decreased approximately 4-fold”, the “apparent affinity … with 15% PS” value [7] was “reduced 5-fold” and the “apparent affinity of factor IXa” value [7] was “decreased approximately 4-fold”.
“wild-type FVIII (from UniProt P00451 20-2351)” showed a Kd [1] of 0.3 nM.
In the case of “IR8 (90/b/73 R336I/R562K/R740A; del795-1688/Arg336Iso/Arg562Lys/Arg740Ala) (from UniProt P00451 20-812; P00451 1708-2351)”, the fold reduced affinity compared to rFVIII [8] is reported as 20 fold, the fold lower binding affinity compared to wild-type FVIII [2] is reported as 10 fold and the fold lower affinity than FVIII WT [9] is reported as greater than 10 fold.
“ESH8, mouse monoclonal anti-light chain factor VIII antibody (American Diagnostica)” was tested, and the % Of Initial Activity, +ESH8 (APTT after 4 hour incubation at 37 C with FVIII-deficient plasma) (wild-type FVIII (human)) was 29% and the % Of Initial Activity, +ESH8 (APTT after 4 hour incubation at 37 C with FVIII-deficient plasma) [10] was 120%.
“A2 subunit of thrombin-cleaved R698W B-domainless FVIII (from UniProt P00451 392-759)” gave a fold increased rate of A2 subunit dissociation compared to a B domainless FVIII control [3] of 3 fold.
